Data on 7 molecules can be found in article PMC9943654, “The recognition mode between hsRBFA and mitoribosome 12S rRNA during mitoribosomal biogenesis”.

In one series the target is T1, hsRBFA Nt (Homo sapiens, UniProt Q8N0V3 42-89).
T1 chain: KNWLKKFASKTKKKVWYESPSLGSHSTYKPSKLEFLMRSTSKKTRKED
As to the kind of experiment: EMSA; complex stays in well; EMSA: 20 mM Tris-HCl pH 8.0, 200 mM NaCl, 37 C 30 min, 200 nM ssRNA or 2 uM dsRNA; FP: same buffer, 40 nM 5'-FAM RNA, temperature not stated. The note with it: protein: recombinant, tags: His6-MBP N-terminal, hairpin. (In general: A gel shift assay detects complexes by their altered migration in electrophoresis.)

The target in another series is T2, hsRBFA KH-like (Homo sapiens, UniProt Q8N0V3 86-201).
T2 sequence: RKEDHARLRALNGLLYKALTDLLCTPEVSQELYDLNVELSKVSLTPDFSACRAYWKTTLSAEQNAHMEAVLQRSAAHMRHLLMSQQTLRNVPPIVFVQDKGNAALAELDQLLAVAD
As to the kind of experiment: EMSA; EMSA: 20 mM Tris-HCl pH 8.0, 200 mM NaCl, 37 C 30 min, 200 nM ssRNA or 2 uM dsRNA; FP: same buffer, 40 nM 5'-FAM RNA, temperature not stated. To be noted: protein: recombinant, tags: His6-MBP N-terminal.

The target in the next series is T3, hsRBFA Nt-KH (Homo sapiens, UniProt Q8N0V3 42-201).
T3 sequence: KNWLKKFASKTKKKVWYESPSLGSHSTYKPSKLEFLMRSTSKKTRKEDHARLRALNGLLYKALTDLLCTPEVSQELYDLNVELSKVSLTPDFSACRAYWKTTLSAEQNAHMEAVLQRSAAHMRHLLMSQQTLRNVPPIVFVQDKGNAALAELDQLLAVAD
The description is as above. To be noted: protein: recombinant, tags: His6-MBP N-terminal.

In the case of GGUGGCGGUGCUUCAUUCGUGAAGCGCGUCACC (structured_RNA) [h28], the binding result with hsRBFA Nt is “binds”; with hsRBFA KH-like (hairpin), “no binding”; with hsRBFA Nt-KH (hairpin), “binds”.

Regarding UAAGUGUACUGGAAAGUGCACUUG (structured_RNA) [h45], the values for the binding result with hsRBFA Nt, in the series with hsRBFA KH-like (hairpin) and with hsRBFA Nt-KH (hairpin) were “binds”, “no binding” and “binds”, respectively.

GACGAAC (ssRNA) [ssRNA-3'end]: the binding result with hsRBFA KH-like (single strand) is on record as “no binding”.

B1: DNA (dsDNA)
DNA 1: TTGGTCAG
DNA 2: CTGACCAA
Take B1: the binding result in the series with hsRBFA Nt-KH (blunt) was “binds”.

With GGCGUCACCCUCUUCGGAGACAAGUCGCC (structured_RNA) [h44], the binding result in the series with hsRBFA Nt (label: 5'-FAM in FP) is reported as “binds”; in the series with hsRBFA KH-like (label: 5'-FAM in FP, hairpin), “no binding”; with hsRBFA Nt-KH (label: 5'-FAM in FP, hairpin) it was “binds”.

Consider AUAAUAGAAGUAUUAU (structured_RNA) [AU], for which the binding result in the series with hsRBFA Nt-KH (hairpin) was “binds”.

For the molecule CGCCGCGAAGGCGGCG (structured_RNA) [GC], the binding result in the series with hsRBFA Nt-KH (hairpin) was “binds”.
